Key:
[1] = molecular target: NbHUB1-GFP (Nicotiana benthamiana); experiment: FRET or BRET; FRET by acceptor photobleaching in epidermal cells of N. benthamiana leaves; EGFP/GFP fusion as donor, DsRed fusion as acceptor; FRET efficiency (EF) in percent; without ChiLCV
[2] = molecular target: NbUBC2-EGFP (Nicotiana benthamiana); experiment: as above
[3] = molecular target: Rep-DsRed (Chilli leaf curl virus); experiment: FRET or BRET; FRET by acceptor photobleaching in epidermal cells of N. benthamiana leaves, in the presence of ChiLCV, Rep proteins organised as punctate bodies
[4] = molecular target: NbUBC2-DsRed (Nicotiana benthamiana); experiment: FRET or BRET; FRET by acceptor photobleaching in epidermal cells of N. benthamiana leaves; EGFP/GFP fusion as donor, DsRed fusion as acceptor; FRET efficiency (EF) in percent; without ChiLCV

Row | Substance | FRET efficiency [1] [%] | FRET efficiency [2] [%] | FRET efficiency in the presence of ChiLCV [3] [%] | FRET efficiency [4] [%]
1 | Rep_(1-120)-DsRed (domain or fragment) | 45 | 38 | – | –
2 | Rep-EGFP (natural protein) | – | – | 68.7 | 43.7
3 | Rep_(1-180)-DsRed (domain or fragment) | 44 | 40.5 | – | –
4 | Rep_(181-361)-DsRed (domain or fragment) | 58.5 | – | – | –
5 | Rep-DsRed (natural protein) | 58.7 | – | – | –

From article PMC5597257
